The record followed here is US20200249244A1 (PROTHENA BIOSCIENCES, published 2020).

“And” between values parts separate entries of the source, which are not always exact repeats. Equal values may be shown once.

The target in test [1] is T1, recombinant human TTR, denatured (misfolded) (human, UniProt P02766 21-147). Briefly: SPR Biacore T200, antibody captured by anti-mouse antibody, Gu-hTTR as analyte, 1:1 fit. Here is the method:
(§1) Anti-Mouse antibody was immobilized on sensor chip CM3 (GE Healthcare Life Sciences) via amine coupling, and murine antibodies (ligand) were captured to a level to ensure a maximum binding of analyte of 50 RU (approximately 250RU of ligand binding). Various concentrations of Gu-TTR (ranging from 0.4 nM to 100 nM) were passed over the captured ligand at 50 μL/min in running buffer (HBS+0.05% P-20, 1 mg/mL BSA, 50 mM Gu-HCl) for 300 s association time and 900 s dissociation time. Regeneration of the chip surface was accomplished by 2 short injections of 10 mM Glycine-HCl at pH 1.7. Concentrations of Gu-cTTR used ranged from 1-1000 nM, while concentrations of Human TTR tetramer ranged from 10 nM to 10,000 nM. Data was blank subtracted to both a sensor not containing ligand and 0 nM analyte concentration. Analysis was performed using a global 1:1 fit with Biacore Evaluation software (v3.0) with bulk refractive index set to zero RU.

The target of test [2] is Cynomolgus TTR denatured in 6 M Guanidine Hydrochloride (Cynomolgus, UniProt Q8HXW1 21-147). In words: SPR Biacore T200, antibody captured by anti-mouse antibody, Gu-cTTR 1-1000 nM as analyte, 1:1 fit. How it is done: as §1
Test [3] concerns the target T1, recombinant human TTR, denatured …. In words: SPR Biacore T200, antibody captured by anti-mouse antibody, Gu-hTTR 0.4-100 nM as analyte, 1:1 fit. How it is done: (§2) Anti-Human antibody was immobilized on flow cells 1 and 2, Anti-Mouse antibody was immobilized on flow cells 3 and 4 on sensor chip CM3 (GE Healthcare Life Sciences) via amine coupling, chimeric and murine 18C5 antibodies (ligand) were captured to a level to ensure a maximum binding of analyte of 50 RU (approximately 250RU of ligand binding). Various concentrations of Gu-TTR (ranging from 0.4 nM to 100 nM) were passed over the captured ligand at 50 μL/min in running buffer (HBS+0.05% P-20, 1 mg/mL BSA, 50 mM Gu-HCl) for 300s association time and 900s dissociation time. Regeneration of the chip surface was accomplished by 2 short injections of 3M Magnesium Chloride or 2 short injections of 10 mM Glycine-HCl at pH 1.7. Data was blank subtracted to both a sensor not containing ligand and 0 nM analyte concentration. Analysis was performed using a global 1:1 fit with Biacore Evaluation software (v3.0) with bulk refractive index set to zero RU.

In test [4] the target is native tetrameric human TTR (human, UniProt P02766 21-147). Briefly: SPR Biacore T200, antibody captured by anti-mouse antibody, human TTR tetramer 10-10,000 nM as analyte, 1:1 fit. How it is done:
as §1

Test [5] concerns the target T1, recombinant human TTR, denatured …. Briefly: SPR Biacore T200, antibody captured by anti-human antibody, Gu-hTTR 0.4-100 nM as analyte, 1:1 fit. Here is the method: as §2
Test [6] addresses misfolded TTR in plasma of ATTR patients (human, UniProt P02766 21-147). Briefly: MSD ECL competition: m14G8 spiked into plasma of 12 h-ATTR patients, free mis-TTR captured by biotinylated 9D5 (competitor), Dako polyclonal reporter.

B1: mouse 18C5 antibody (antibody, V domains shown)
VH: EVKLLESGGGLVQPGGSLNLSCVASGFDFSRFWMSWARQAPGRGQEWIGEINPGSSTINYTPSLKDKFIISRDNAKNTLFLQMSKVRSEDSALYYCARLGYGNYGWALDYWGQGTSVTVSS
VL: DVLMTQTPLSLPVSLGDQASISCRSSQSIVDSNGNTYLEWYLQKPGQSPKLLIYKVSNRFSGVPDRFSGSGSGTDFTLKISRVEAEDLGIYYCFQGSHVPLTFGAGTKLELK
notes: Used unlabelled (Biacore, Western blot), biotinylated (capture) or SULFO-TAG labelled (reporter) in the MSD assays; also called murine 18C5; m18C5
Regarding B1, the Kd is 5.9 nM in test [1] and 2.2 nM in test [3]. In addition, the dissociation rate constant (koff) in test [1] was 0.00062 s⁻¹; in test [2] it was 0.00092 s⁻¹; in test [3], 0.00021 s⁻¹; in test [4] it was 0.00022 s⁻¹. The kon in test [1] stood at 110000 M⁻¹ s⁻¹; in test [2], 100000 M⁻¹ s⁻¹; in test [3], 99000 M⁻¹ s⁻¹; in test [4], 2200 M⁻¹ s⁻¹.

B2: chimeric 18C5 antibody (antibody, human IgG1, kappa, V domains shown)
VH: B1 VH
VL: DVLMTQTPLSLPVSLGDQASISCRSSQSIVDSNGNTYLEWYLQKPGQSPKLLIYKVSNRFSGVPDRFSGSGSGTDFTLKISRVEAEDLGIYYCFQGSHVPLTFGAGTKLELKR
notes: Mouse 18C5 variable regions on human IgG1/kappa constant regions, expressed in CHO cells
On to B2, for which, in test [5], the dissociation constant Kd was found to be 1.8 nM, the koff came to 0.00016 s⁻¹ and the kon turned out to be 130000 M⁻¹ s⁻¹.

B3: Mouse 14G8 (antibody, V domains shown)
VH: EVKLVESGGGLVQPGGSLKLSCAASGFTFSSYTMSWVRQTPEKRLELVAEINNSGDTTYYPDTVKGRFTISRDNAKNTLYLQMSSLKSEDTAMYYCARHYYYGGGYGGWFFDVWGTGTTVTVSS
VL: DIVMTQAAPSVPVTPGESVSISCRSNKSLLHSNGNTYLYWFLQRPGQSPQLLIYRVSNLASGVPDRFSGSGSGTAFTLRISRVEAEDVGVYYCMQHLEYPLTFGAGTKLELKR
For B3, the EC50 in test [6] is 343 nM and ~50 µg/mL.
